{"source": "patent US11702469B2", "about": "“Recombinant EGFL7, EGFL7 antibodies, and uses thereof” (Ohio State Innovation Foundation, priority 2017, dated 2023)", "molecules": {"B1": {"name": "Parsatuzumab: Anti-human EGFL7 therapeutic antibody (Parsatuzumab) obtained from Creative Biolabs; blocking monoclonal antibody (antibody, chains of the INN, looked up, V domains shown)", "VH": "EVQLVESGGGLVQPGGSLRLSCAASGYTFIDYYMNWVRQAPGKGLEWVGDINLDNSGTHYNQKFKGRFTISRDKSKNTAYLQMNSLRAEDTAVYYCAREGVYHDYDDYAMDYWGQGTLVTVSS", "VL": "DIQMTQSPSSLSASVGDRVTITCRTSQSLVHINAITYLHWYQQKPGKAPKLLIYRVSNRFSGVPSRFSGSGSGTDFTLTISSLQPEDFATYYCGQSTHVPLTFGQGTKVEIK"}}, "key": {"[1]": {"tested_on": "HES-1", "test": "HES-1 / HES1 RT-PCR in primary AML blasts", "assay_type": "cell-based, human", "experimental": "FIG. 15A-15D. EGFL7 binds and antagonizes NOTCH2 signaling. FIG. 15A. Co-IPs in Kasumi-1 cells using anti-EGFL7 antibody or normal rabbit IgG in Protein G Plus/Protein A agarose beads. Eluate was analyzed by immunoblotting for NOTCH1,-3, and EGFL7. FIG. 15B. Co-IPs with rabbit anti NOTCH1-3 antibody or normal rabbit IgG in Protein G Plus/Protein A agarose beads. FIG. 15C. Immunoblot for cleaved and total NOTCH2 in primary AML blasts stimulated in 0.25 μM rEGFL7. FIG. 15D. RT-PCR on primary AML blasts stimulated with 0.25 μM rEGFL7, *P<0.05.\nFIG. 18A-18B. Parsatuzumab decreases blast growth and activation of NOTCH downstream signaling. FIG. 18A. […]\nFIG. 23A-23E. […] (FIG. 23B) Total RNA was extracted for quantitative real time (qRT-PCR) analysis of HES1 mRNA with β-ACTIN as internal control. *p<0.05 vs un-stimulated control (Unstim). […] Total RNA was extracted for quantitative real time RT-PCR analysis of HES1 mRNA with β-ACTIN as internal control. *p<0.05, ***p<0.001 vs IgG.\n(§1) Total RNA was extracted using Trizol reagent (Invitrogen, Carlsbad, Calif., USA). cDNA was synthesized using SuperScript III reagents (Invitrogen) according to the manufacturer's instruction. Quantitative Real-Time RT-PCR was performed using commercially available TaqMan Gene Expression Assay primers and the 7900HT Fast Real-Time PCR System (Applied Biosystems, Foster City, Calif., USA). […]"}, "[2]": {"tested_on": "HES1", "test": "DLL4-Fc coated plate NOTCH activation (HES1 qRT-PCR), THP-1", "assay_type": "cell-based, human", "settings": "pre-treated 30 min: 10 μM AVA, 100 μg/ml anti-EGFL7 or 0.25 μM rEGFL7; then 4 h; vs DLL4-FC", "experimental": "FIG. 24A-24G. EGFL7 prevents activation of NOTCH signaling in AML cells. (FIG. 24A) Overview of experiments using DLL4-FC and IgG-FC control coated plates to induce NOTCH activation. (FIG. 24B) THP-1 cells were pre-treated with 10 μM γ-secretase inhibitor (AVA), 100 μg/ml anti-EGFL7 antibody or 0.25 μM rEGFL7 for 30 min, then transferred to IgG-Fc or DLL4-Fc coated plates. After 4 h of incubation total RNA from THP-1 cells was extracted for qRT-PCR analysis of HES1 with β-ACTIN as internal control. ^###P<0.001 DLL4-FC vs IgG-FC; ***P<0.001 DLL4+AVA, DLL4+rEGFL7, and DLL4+anti-EGFL7 vs DLL4-FC. (FIG. 24C) Primary AML blasts were pretreated with 10 μM γ-secretase inhibitor (AVA), 100 μg/ml anti-EGFL7 antibody or 0.25 μM rEGFL7 for 30 min, then transferred to IgG-Fc or DLL4-Fc coated plates. After 4 h of incubation, total RNA was extracted for RT-PCR analysis of HES1 mRNA with β-ACTIN as internal control. ^###P<0.001 DLL4-Fc vs IgG-Fc; *P<0.05, ***P<0.001 vs DLL4 Fc. THP-1 cells were treated with the indicated concentration of anti-EGFL7 (@E7) then assessed for apoptosis using (FIG. 24D) AnnexinV+ staining and FACS; *P<0.05 (FIG. 24E) Immuno-blotting for PARP1 and Casp3 cleavage. (FIG. 24F) Cell differentiation was assessed by CD11B and CD14 staining 96-hours post anti-EGFL7 treatments; *P<0.05. (FIG. 24G) To determine whether activation of NOTCH by DLL4-Fc could be accentuated by anti-EGFL7 treatment, THP-1 cells were first treated with anti-EGFL7 (100 μg/ml) and then cultured on DLL4-FC or IgG-Fc coated plates and then assessed for apoptosis using AnnexinV+ staining and FACS. *P<0.05 DLL4-Fc and anti-EGFL7; vs DLL4-FC+anti-EGFL7.\nas §1"}, "[3]": {"tested_on": "HEY1 mRNA", "test": "HEY1 mRNA qRT-PCR in primary AML blasts", "assay_type": "cell-based, human", "settings": "100 μg/ml, 2 and 10 h, vs IgG", "experimental": "FIG. 26. Blocking EGFL7 increases the NOTCH downstream target, HEY1, in human AML patient blasts (A) Primary blasts from AML patients were cultured in SFEM medium with 10% FBS in the absence or presence of 100 μg/ml of IgG or anti-human EGFL7 antibody for 2 and 10 h. Total RNAs were extracted for qRT-PCR analysis of HEY1 mRNA with β-ACTIN as internal control. *p<0.05, ***p<0.001 vs IgG; ns=not significant.\nTotal RNA was extracted using Trizol reagent (Invitrogen, Carlsbad, Calif., USA). cDNA was synthesized using SuperScript III reagents (Invitrogen) according to the manufacturer's instruction. Quantitative Real-Time RT-PCR was performed using commercially available TaqMan Gene Expression Assay primers and the 7900HT Fast Real-Time PCR System (Applied Biosystems, Foster City, Calif., USA). The expression levels of target genes were normalized to β-ACTIN. Relative expression was calculated by using the comparative 2^−ΔΔct method."}, "[4]": {"tested_on": "EOL-1 cells", "test": "EOL-1 AML xenograft in NSG mice", "settings": "for overall survival: 50 mg/kg intraperitoneal, three times per week, 4 mice per group, vs IgG1 control", "description": "(FIG. 25A) Overall survival of transplanted NSG mice which were treated with Parsatuzumab or IgG1 control (4 mice per group; dosage 50 mg/kg intraperitoneal injected). […] (FIG. 25B) HES-1 levels were measured after in vivo treatment with Parsatuzumab and IgG1 control, GAPDH was used as loading control.\nAll studies using animals were carried out in accordance with the OSU institutional guidelines for animal care and under protocols approved by the OSU Institutional Animal Care and Use Committee. All mice used in the experiments were between 8 and 10 weeks of age. Female NOD-scid IL2Rg^null (NSG) mice were transplanted with 10×10^6 EOL-1 cells. Two weeks post-transplant mice were treated with Parsatuzumab or IgG1 control (4 mice per group; dosage 50 mg/kg intraperitoneal), three times per week. Mice were monitored closely for clinical signs of leukemia such as weight loss and hind limb paralysis.\nTwo-tailed student's t tests were performed using GraphPad Prism version 7 (Graphpad Software, San Diego, Calif.) to analyze in vitro and in vivo experiments unless otherwise noted. P values <0.05 were considered significant. Overall survival for the mouse AML xeonograft model was calculated using the Kaplan-Meier method, and survival curves were compared by the log-rank test.\nBriefly, 10×10^6 EOL-1 cells were transplanted into non-conditioned NSG recipient mice. Two weeks post-transplantation, mice were treated with 50 mpk of anti-EGFL7 or IgG1 control antibody three times per week (FIG. 25A)."}}}
{"molecule": "B1", "values": [{"measurement": "expression of HES1", "setting": "[1]; 100 μg/ml, 2 and 10 hrs post treatment, vs IgG", "result": "concomitant increases"}, {"measurement": "HES-1 mRNA expression", "setting": "[1]; 4 and 24 hours after addition, vs IGg1 controls", "result": "significant increases in HES-1 expression"}, {"measurement": "DLL4-Fc-mediated NOTCH activation (HES1)", "setting": "[2]", "result": "enhanced"}, {"measurement": "HEY1 mRNA", "setting": "[3]", "result": "increases were also observed"}, {"measurement": "overall survival", "setting": "[4]", "result": "significant longer overall survival"}, {"measurement": "overall survival", "setting": "[4]; listed as anti-EGFL7", "result": "prolonged survival"}, {"measurement": "HES1 protein (western blots) after in vivo treatment", "setting": "[4]; 50 mpk three times per week, vs IgG1 controls", "result": "increased levels of HES1 protein"}]}
